Test results taken from publication PMC11117858, “APPROACH: Sensitive Detection of Exosomal Biomarkers by Aptamer-Mediated Proximity Ligation Assay and Time-Resolved Förster Resonance Energy Transfer”.

Target: CD63 on SH-SY5Y exosomes (UniProt P08962 2-238)
Assay: flow cytometry on exosome-coated microspheres; 200 nM probe; 5 mM Mg2+; about 10^3-fold (printed 103-fold) fluorescence over control and MU-Cy5; 1x PBS, 5 mM MgCl2, 0.2% BSA (w/v), 37 C, 1 h; exosome-coated microspheres blocked with glycine/BSA; pH not stated
Conditions: protein: native; label: 3' Cy5

Chain of CD63 on SH-SY5Y exosomes (P08962 2-238): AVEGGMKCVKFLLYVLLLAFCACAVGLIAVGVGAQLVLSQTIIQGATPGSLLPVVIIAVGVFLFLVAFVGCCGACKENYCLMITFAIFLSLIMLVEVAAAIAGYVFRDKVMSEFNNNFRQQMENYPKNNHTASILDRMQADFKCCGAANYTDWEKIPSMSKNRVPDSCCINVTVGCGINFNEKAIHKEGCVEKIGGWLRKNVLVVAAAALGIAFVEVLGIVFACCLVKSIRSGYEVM

B1: Apt-CD63-Cy5 (ssDNA)
DNA: ATATACACCCCACCTCGCTCCCGTGACACTAATGCTATTTTTTTTTTTTTTTGACGCTAATAGTTAAGACGCT
B1: binds.
